This passage reports kcat/KM, TF-Dependent Indirect Assay results from patent US20090291890A1 (published 2009).

The test has as its target Factor X (FX) (Homo sapiens (Human)) (UniProt P00742).

Sequence of Factor X (FX) (Homo sapiens (Human)) (P00742 41-488 limits assumed): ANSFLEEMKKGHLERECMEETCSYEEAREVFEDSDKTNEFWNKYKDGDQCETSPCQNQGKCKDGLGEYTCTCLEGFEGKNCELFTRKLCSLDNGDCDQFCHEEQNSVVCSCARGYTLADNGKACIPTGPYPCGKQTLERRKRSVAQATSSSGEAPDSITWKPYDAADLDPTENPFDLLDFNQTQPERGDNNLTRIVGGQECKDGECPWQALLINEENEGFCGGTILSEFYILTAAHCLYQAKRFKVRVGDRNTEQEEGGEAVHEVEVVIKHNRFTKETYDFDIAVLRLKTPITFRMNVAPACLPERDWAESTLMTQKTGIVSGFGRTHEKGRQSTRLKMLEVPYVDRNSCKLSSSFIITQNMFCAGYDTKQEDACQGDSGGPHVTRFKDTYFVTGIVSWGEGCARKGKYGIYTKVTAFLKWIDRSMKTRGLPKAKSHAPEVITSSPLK

B1: FVIIa variant K161A (enzyme)
chain: ANAFLEELRPGSLERECKEEQCSFEEAREIFKDAERTKLFWISYSDGDQCASSPCQNGGSCKDQLQSYICFCLPAFEGRNCETHKDDQLICVNENGGCEQYCSDHTGTKRSCRCHEGYSLLADGVSCTPTVEYPCGKIPILEKRNASKPQGRIVGGKVCPAGECPWQVLLLVNGAQLCGGTLINTIWVVSAAHCFDKIKNWRNLIAVLGEHDLSEHDGDEQSRRVAQVIIPSTYVPGTTNHDIALLRLHQPVVLTDHVVPLCLPERTFSERTLAFVRFSLVSGWGQLLDRGATALELMVLNVPRLMTQDCLQQSRKVGDSPNITEYMFCAGYSDGSKDSCKGDSGGPHATHYRGTWYLTGIVSWGQGCATVGHFGVYTRVSQYIEWLQKLMRSEPRPGVLLRAPFP
Turning to B1, the kcat/KM, TF-Dependent Indirect Assay was 4.22e+07 M⁻¹ s⁻¹.

B2: FVIIa variant Q366E (enzyme)
chain: ANAFLEELRPGSLERECKEEQCSFEEAREIFKDAERTKLFWISYSDGDQCASSPCQNGGSCKDQLQSYICFCLPAFEGRNCETHKDDQLICVNENGGCEQYCSDHTGTKRSCRCHEGYSLLADGVSCTPTVEYPCGKIPILEKRNASKPQGRIVGGKVCPKGECPWQVLLLVNGAQLCGGTLINTIWVVSAAHCFDKIKNWRNLIAVLGEHDLSEHDGDEQSRRVAQVIIPSTYVPGTTNHDIALLRLHQPVVLTDHVVPLCLPERTFSERTLAFVRFSLVSGWGQLLDRGATALELMVLNVPRLMTQDCLQQSRKVGDSPNITEYMFCAGYSDGSKDSCKGDSGGPHATHYRGTWYLTGIVSWGEGCATVGHFGVYTRVSQYIEWLQKLMRSEPRPGVLLRAPFP
For the molecule B2, the kcat/KM, TF-Dependent Indirect Assay amounted to 4.77e+07 M⁻¹ s⁻¹.

B3: FVIIa variant Q366N (enzyme)
chain: ANAFLEELRPGSLERECKEEQCSFEEAREIFKDAERTKLFWISYSDGDQCASSPCQNGGSCKDQLQSYICFCLPAFEGRNCETHKDDQLICVNENGGCEQYCSDHTGTKRSCRCHEGYSLLADGVSCTPTVEYPCGKIPILEKRNASKPQGRIVGGKVCPKGECPWQVLLLVNGAQLCGGTLINTIWVVSAAHCFDKIKNWRNLIAVLGEHDLSEHDGDEQSRRVAQVIIPSTYVPGTTNHDIALLRLHQPVVLTDHVVPLCLPERTFSERTLAFVRFSLVSGWGQLLDRGATALELMVLNVPRLMTQDCLQQSRKVGDSPNITEYMFCAGYSDGSKDSCKGDSGGPHATHYRGTWYLTGIVSWGNGCATVGHFGVYTRVSQYIEWLQKLMRSEPRPGVLLRAPFP
As to B3, the kcat/KM, TF-Dependent Indirect Assay was 5.64e+07 M⁻¹ s⁻¹.

B4: FVIIa variant H373S (enzyme)
chain: ANAFLEELRPGSLERECKEEQCSFEEAREIFKDAERTKLFWISYSDGDQCASSPCQNGGSCKDQLQSYICFCLPAFEGRNCETHKDDQLICVNENGGCEQYCSDHTGTKRSCRCHEGYSLLADGVSCTPTVEYPCGKIPILEKRNASKPQGRIVGGKVCPKGECPWQVLLLVNGAQLCGGTLINTIWVVSAAHCFDKIKNWRNLIAVLGEHDLSEHDGDEQSRRVAQVIIPSTYVPGTTNHDIALLRLHQPVVLTDHVVPLCLPERTFSERTLAFVRFSLVSGWGQLLDRGATALELMVLNVPRLMTQDCLQQSRKVGDSPNITEYMFCAGYSDGSKDSCKGDSGGPHATHYRGTWYLTGIVSWGQGCATVGSFGVYTRVSQYIEWLQKLMRSEPRPGVLLRAPFP
Turning to B4, the kcat/KM, TF-Dependent Indirect Assay is 2.75e+07 M⁻¹ s⁻¹.

B5: FVIIa variant Q366D (enzyme)
chain: ANAFLEELRPGSLERECKEEQCSFEEAREIFKDAERTKLFWISYSDGDQCASSPCQNGGSCKDQLQSYICFCLPAFEGRNCETHKDDQLICVNENGGCEQYCSDHTGTKRSCRCHEGYSLLADGVSCTPTVEYPCGKIPILEKRNASKPQGRIVGGKVCPKGECPWQVLLLVNGAQLCGGTLINTIWVVSAAHCFDKIKNWRNLIAVLGEHDLSEHDGDEQSRRVAQVIIPSTYVPGTTNHDIALLRLHQPVVLTDHVVPLCLPERTFSERTLAFVRFSLVSGWGQLLDRGATALELMVLNVPRLMTQDCLQQSRKVGDSPNITEYMFCAGYSDGSKDSCKGDSGGPHATHYRGTWYLTGIVSWGDGCATVGHFGVYTRVSQYIEWLQKLMRSEPRPGVLLRAPFP
With B5, the kcat/KM, TF-Dependent Indirect Assay worked out at 1.88e+07 M⁻¹ s⁻¹.

B6: FVIIa variant H373F (enzyme)
chain: ANAFLEELRPGSLERECKEEQCSFEEAREIFKDAERTKLFWISYSDGDQCASSPCQNGGSCKDQLQSYICFCLPAFEGRNCETHKDDQLICVNENGGCEQYCSDHTGTKRSCRCHEGYSLLADGVSCTPTVEYPCGKIPILEKRNASKPQGRIVGGKVCPKGECPWQVLLLVNGAQLCGGTLINTIWVVSAAHCFDKIKNWRNLIAVLGEHDLSEHDGDEQSRRVAQVIIPSTYVPGTTNHDIALLRLHQPVVLTDHVVPLCLPERTFSERTLAFVRFSLVSGWGQLLDRGATALELMVLNVPRLMTQDCLQQSRKVGDSPNITEYMFCAGYSDGSKDSCKGDSGGPHATHYRGTWYLTGIVSWGQGCATVGFFGVYTRVSQYIEWLQKLMRSEPRPGVLLRAPFP
As to B6, the kcat/KM, TF-Dependent Indirect Assay worked out at 5.11e+07 M⁻¹ s⁻¹.

B7: FVIIa variant H373E (enzyme)
chain: ANAFLEELRPGSLERECKEEQCSFEEAREIFKDAERTKLFWISYSDGDQCASSPCQNGGSCKDQLQSYICFCLPAFEGRNCETHKDDQLICVNENGGCEQYCSDHTGTKRSCRCHEGYSLLADGVSCTPTVEYPCGKIPILEKRNASKPQGRIVGGKVCPKGECPWQVLLLVNGAQLCGGTLINTIWVVSAAHCFDKIKNWRNLIAVLGEHDLSEHDGDEQSRRVAQVIIPSTYVPGTTNHDIALLRLHQPVVLTDHVVPLCLPERTFSERTLAFVRFSLVSGWGQLLDRGATALELMVLNVPRLMTQDCLQQSRKVGDSPNITEYMFCAGYSDGSKDSCKGDSGGPHATHYRGTWYLTGIVSWGQGCATVGEFGVYTRVSQYIEWLQKLMRSEPRPGVLLRAPFP
Take B7: the kcat/KM, TF-Dependent Indirect Assay turned out to be 2.79e+07 M⁻¹ s⁻¹.

B8: FVIIa variant K161V (enzyme)
chain: ANAFLEELRPGSLERECKEEQCSFEEAREIFKDAERTKLFWISYSDGDQCASSPCQNGGSCKDQLQSYICFCLPAFEGRNCETHKDDQLICVNENGGCEQYCSDHTGTKRSCRCHEGYSLLADGVSCTPTVEYPCGKIPILEKRNASKPQGRIVGGKVCPVGECPWQVLLLVNGAQLCGGTLINTIWVVSAAHCFDKIKNWRNLIAVLGEHDLSEHDGDEQSRRVAQVIIPSTYVPGTTNHDIALLRLHQPVVLTDHVVPLCLPERTFSERTLAFVRFSLVSGWGQLLDRGATALELMVLNVPRLMTQDCLQQSRKVGDSPNITEYMFCAGYSDGSKDSCKGDSGGPHATHYRGTWYLTGIVSWGQGCATVGHFGVYTRVSQYIEWLQKLMRSEPRPGVLLRAPFP
As for B8, the kcat/KM, TF-Dependent Indirect Assay was 5.45e+07 M⁻¹ s⁻¹.

B9: FVIIa variant S60A (enzyme)
chain: ANAFLEELRPGSLERECKEEQCSFEEAREIFKDAERTKLFWISYSDGDQCASSPCQNGGACKDQLQSYICFCLPAFEGRNCETHKDDQLICVNENGGCEQYCSDHTGTKRSCRCHEGYSLLADGVSCTPTVEYPCGKIPILEKRNASKPQGRIVGGKVCPKGECPWQVLLLVNGAQLCGGTLINTIWVVSAAHCFDKIKNWRNLIAVLGEHDLSEHDGDEQSRRVAQVIIPSTYVPGTTNHDIALLRLHQPVVLTDHVVPLCLPERTFSERTLAFVRFSLVSGWGQLLDRGATALELMVLNVPRLMTQDCLQQSRKVGDSPNITEYMFCAGYSDGSKDSCKGDSGGPHATHYRGTWYLTGIVSWGQGCATVGHFGVYTRVSQYIEWLQKLMRSEPRPGVLLRAPFP
In the case of B9, the kcat/KM, TF-Dependent Indirect Assay came to 5.15e+07 M⁻¹ s⁻¹.

B10: FVIIa variant H373A (enzyme)
chain: ANAFLEELRPGSLERECKEEQCSFEEAREIFKDAERTKLFWISYSDGDQCASSPCQNGGSCKDQLQSYICFCLPAFEGRNCETHKDDQLICVNENGGCEQYCSDHTGTKRSCRCHEGYSLLADGVSCTPTVEYPCGKIPILEKRNASKPQGRIVGGKVCPKGECPWQVLLLVNGAQLCGGTLINTIWVVSAAHCFDKIKNWRNLIAVLGEHDLSEHDGDEQSRRVAQVIIPSTYVPGTTNHDIALLRLHQPVVLTDHVVPLCLPERTFSERTLAFVRFSLVSGWGQLLDRGATALELMVLNVPRLMTQDCLQQSRKVGDSPNITEYMFCAGYSDGSKDSCKGDSGGPHATHYRGTWYLTGIVSWGQGCATVGAFGVYTRVSQYIEWLQKLMRSEPRPGVLLRAPFP
On to B10, for which the kcat/KM, TF-Dependent Indirect Assay came out at 3.11e+07 M⁻¹ s⁻¹.

B11: FVIIa variant Q366T (enzyme)
chain: ANAFLEELRPGSLERECKEEQCSFEEAREIFKDAERTKLFWISYSDGDQCASSPCQNGGSCKDQLQSYICFCLPAFEGRNCETHKDDQLICVNENGGCEQYCSDHTGTKRSCRCHEGYSLLADGVSCTPTVEYPCGKIPILEKRNASKPQGRIVGGKVCPKGECPWQVLLLVNGAQLCGGTLINTIWVVSAAHCFDKIKNWRNLIAVLGEHDLSEHDGDEQSRRVAQVIIPSTYVPGTTNHDIALLRLHQPVVLTDHVVPLCLPERTFSERTLAFVRFSLVSGWGQLLDRGATALELMVLNVPRLMTQDCLQQSRKVGDSPNITEYMFCAGYSDGSKDSCKGDSGGPHATHYRGTWYLTGIVSWGTGCATVGHFGVYTRVSQYIEWLQKLMRSEPRPGVLLRAPFP
With B11, the kcat/KM, TF-Dependent Indirect Assay amounted to 3.42e+07 M⁻¹ s⁻¹.

B12: FVIIa variant H373D (enzyme)
chain: ANAFLEELRPGSLERECKEEQCSFEEAREIFKDAERTKLFWISYSDGDQCASSPCQNGGSCKDQLQSYICFCLPAFEGRNCETHKDDQLICVNENGGCEQYCSDHTGTKRSCRCHEGYSLLADGVSCTPTVEYPCGKIPILEKRNASKPQGRIVGGKVCPKGECPWQVLLLVNGAQLCGGTLINTIWVVSAAHCFDKIKNWRNLIAVLGEHDLSEHDGDEQSRRVAQVIIPSTYVPGTTNHDIALLRLHQPVVLTDHVVPLCLPERTFSERTLAFVRFSLVSGWGQLLDRGATALELMVLNVPRLMTQDCLQQSRKVGDSPNITEYMFCAGYSDGSKDSCKGDSGGPHATHYRGTWYLTGIVSWGQGCATVGDFGVYTRVSQYIEWLQKLMRSEPRPGVLLRAPFP
Turning to B12, the kcat/KM, TF-Dependent Indirect Assay is 1.79e+07 M⁻¹ s⁻¹.

B13: FVIIa variant S52A (enzyme)
chain: ANAFLEELRPGSLERECKEEQCSFEEAREIFKDAERTKLFWISYSDGDQCAASPCQNGGSCKDQLQSYICFCLPAFEGRNCETHKDDQLICVNENGGCEQYCSDHTGTKRSCRCHEGYSLLADGVSCTPTVEYPCGKIPILEKRNASKPQGRIVGGKVCPKGECPWQVLLLVNGAQLCGGTLINTIWVVSAAHCFDKIKNWRNLIAVLGEHDLSEHDGDEQSRRVAQVIIPSTYVPGTTNHDIALLRLHQPVVLTDHVVPLCLPERTFSERTLAFVRFSLVSGWGQLLDRGATALELMVLNVPRLMTQDCLQQSRKVGDSPNITEYMFCAGYSDGSKDSCKGDSGGPHATHYRGTWYLTGIVSWGQGCATVGHFGVYTRVSQYIEWLQKLMRSEPRPGVLLRAPFP
Turning to B13, the kcat/KM, TF-Dependent Indirect Assay is 4.66e+07 M⁻¹ s⁻¹.
